This passage reports stoichiometry N results from paper PMC3934309.

The target in the test is DsbC-MPK4 fusion (construct pT7-DsbC-MPK4) (E. coli | Leishmania major) (UniProt P0AEG6). Kind of test: SEC; analytical size exclusion chromatography of the IMAC purified fraction of the uncleaved DsbC-MPK4 fusion; peak at 8.4 ml; apparent molecular weight.

As for “DsbC-MPK4 fusion (construct pT7-DsbC-MPK4) (from UniProt P0AEG6 21-236; Q4QD66 1-363)”, the stoichiometry N was 10.
